Molecular target: wt human lysyl-tRNA synthetase (h-LysRS, cytosolic) (human) (UniProt Q15046)
Assay: EMSA
Conditions: 1 mM Mg2+, Kd values printed only in Fig. 4C, EMSA: 20 mM HEPES pH 7.4, 60 mM NaCl, 10 mM KCl, 1 mM MgCl2, 400 uM DTT, 8% glycerol, room temperature 30 min, 37.5 nM tRNA, 0-5 uM LysRS, Hill fit, SYBR Gold …

Sequence of wt human lysyl-tRNA synthetase (h-LysRS, cytosolic) (human) (Q15046 whole entry): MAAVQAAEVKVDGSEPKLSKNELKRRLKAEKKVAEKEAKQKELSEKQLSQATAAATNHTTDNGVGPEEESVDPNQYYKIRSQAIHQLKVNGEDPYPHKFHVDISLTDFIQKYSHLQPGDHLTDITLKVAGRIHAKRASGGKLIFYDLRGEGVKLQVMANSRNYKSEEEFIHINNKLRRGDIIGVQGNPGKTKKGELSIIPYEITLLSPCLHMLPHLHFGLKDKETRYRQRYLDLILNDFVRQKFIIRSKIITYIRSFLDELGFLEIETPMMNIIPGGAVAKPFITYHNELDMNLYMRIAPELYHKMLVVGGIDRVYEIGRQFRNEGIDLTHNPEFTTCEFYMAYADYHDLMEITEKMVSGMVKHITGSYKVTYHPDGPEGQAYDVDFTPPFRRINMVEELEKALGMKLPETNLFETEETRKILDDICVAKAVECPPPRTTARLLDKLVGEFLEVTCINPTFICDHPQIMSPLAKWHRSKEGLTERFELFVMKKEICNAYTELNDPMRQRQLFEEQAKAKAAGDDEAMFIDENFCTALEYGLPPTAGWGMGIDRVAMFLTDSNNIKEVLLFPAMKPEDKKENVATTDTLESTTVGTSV

Substance	binding signal (fold higher affinity than IVT tRNALys3) (native modifications, named: m2G10, D20, S34 (mcm5s2U), R37 (ms2t6A), D47, psi55, 9 types, 14 modified nucleotides modeled)	binding signal (scale: fold lower affinity than modified tRNALys3)
cellular fully modified tRNALys3	2.5	–
IVT unmodified tRNALys3	–	2.5
